The source of these data is patent publication US10654908B2, “Isolated T cell receptors and methods of use therefor” (University of Virginia Patent Foundation, priority 2014, dated 2020).

One assay has as its system human CD8 T-cells. The experiment in a line: IFN-γ ELISpot of human CD8 T-cells cultured 7 days with peptide-pulsed DC. To be noted: for donors with pre-existing memory response: CD45RO+ CD8 T-cells from four donors, 7 days, cutoff >50 spots/25,000 cells; for magnitude of phosphopeptide-specific IFN-γ responses of normal donor T-cells: bulk CD8 T-cells, 7 days with peptide-pulsed autologous DC, restimulated with phosphopeptide-pulsed HLA-A2+ targets. Type of assay: cell-based.

Assay [1] in a line: Immunization of AAD transgenic mice with phosphopeptide-pulsed DC. Conditions: mouse.
Assay [2] deals with pIRS-2 pulsed C1R-A2 or C1R-AAD target cells. The experiment in a line: IFN-γ ELISA of TCR-expressing human CD8 T-cells with pulsed C1R-A2 or C1R-AAD targets (pIRS-2). The format is cell-based. Conditions: 18-20 hours co-culture. The protocol: Human CD8 T-cells were electroporated with IVT RNA encoding murine TCR αβ chains specific for pIRS-2 (pIRS2 BK TCR; FIG. 10A; SEQ ID NO: 2) or pDesmuslin (A10 (right to left hatched boxes) or A11 (left to right hatched boxes) TCR chains; FIG. 10B), and assayed 12-14 hours later. TCR-expressing human CD8 T-cells were co-cultured for 18-20 hours with C1R-A2 or C1R-AAD pulsed or unpulsed target cells. Supernatants were then harvested and IFN-γ was detected by ELISA. No RNA controls underwent electroporation with no addition of IVT RNA (open squares).
Background: ELISA stands for enzyme-linked immunosorbent assay.

A further assay concerns AAD+ SLM2 melanoma cells. The experiment in a line: Tumor control after adoptive transfer of TCR-expressing human CD8 T-cells. Type of assay: in vivo, NOD/SCID/IL-2Rγc−/− mice. An excerpt: Seven to 8 week old male […] mice (The Jackson Laboratory, Bar Harbor, Me., United States of America) were inoculated subcutaneously with 1.4×10^6 AAD^+ SLM2 melanoma cells. 3×10^6 human CD8 T-cells expressing either pIRS-2- or pCDC25b-specific TCR, or 1.5×10^6 of both populations, were adoptively transferred 3 days later. An additional 1.5×10^6 T-cells were given 4 days later. All mice received 1500 CU of IL-2 (R&D Systems, Inc., Minneapolis, Minn., United States of America) […]. every other day for 10 days. Tumor size was measured every 2-3 days with a digital caliper, and calculated as L×W (mm^2). Tumor free survival is equal to the measurement day when the tumor size was >30 mm^2.
Log-rank (Mantel Cox Test) analysis, Cox proportional hazard modeling, and parametric modeling were performed to determine statistical significance where indicated. p values less than 0.05 were considered significant.

Assay [3] deals with C1R-A2 cells pulsed with 1 μM phosphopeptide. Put plainly: In vitro cytotoxicity assay (CFSE). Type of assay: cell-based, human. To be noted: 5 hours co-culture, pulsed versus unpulsed C1R-A2. The method, then:
Phosphopeptide-specific murine TCR-expressing human CD8 T-cells were co-cultured for 5 hours with a 1:1 mix of C1R-A2 cells pulsed with 1 μM phosphopeptide and stained with 1 μM carboxyfluorescein succinimidyl ester (CFSE; Life Technologies) and unpulsed C1R-A2 cells stained with 0.1 μM CFSE. Specific killing was assessed by evaluating percent loss of the peptide-pulsed population relative to the unpulsed population.

Assay [4] relates to pCDC25b38-46-pulsed C1R-AAD and C1R-A2 targets. The experiment in a line: CD107a / IFN-γ flow cytometry of TCR-electroporated human CD8 T-cells on pCDC25b peptide-pulsed targets. Type of assay: cell-based. The method, then: Prior to electroporation, donor T-cells were washed three times in serum-free OPTI-MEM® media (Life Technologies Corporation, Gaithersburg, Md., United States of America) and were suspended at 25×10^6/ml. Cells were mixed with 2 μg IVT RNA of each TCR α and β chain per 10^6 cells and transferred to pre-chilled BTX 2 mm gap cuvettes. Using the BTX T820 electroporation system (BTX Instrument Division, Harvard Apparatus, Inc. Holliston, Mass., United States of America), cells were pulsed at 500V for 0.3 msec. Transfected cells were placed in AIM-V® brand serum-free medium (Life Technologies Corporation, Gaithersburg, Md., United States of America) with 5% AB^+ serum (GEMCELL™; Gemini Bio-Products, West Sacramento, Calif., United States of America) for 8-24 hours and evaluated for TCR expression and functionality.
14-16 hours post-electroporation, phosphopeptide-specific murine TCR-transfected human CD8 T-cells were co-cultured in AIM-V (Life Technologies Corporation, Gaithersburg, Md., United States of America) supplemented with 5% human AB^+ serum (GEMCELL™; Gemini Bio-Products, West Sacramento, Calif., United States of America) with peptide-pulsed or unpulsed C1R-AAD, C1R-A2, or cancer cells endogenously expressing the pIRS-21097-1105 or the pCDC25b38-46 phosphopeptide. Cell surface expression of mouse TCRβ, human CD3, and human CD8 molecules on human CD8 T-cells were assessed using antibodies from either Becton Dickinson Bioscience (San Jose, Calif., United States of America) or eBioScience Inc. (San Diego, Calif., United States of America). […] Cells were then stained for surface molecule expression, fixed and permeabilized using CYTOFIX/CYTOPERM™ (Becton Dickinson Bioscience (San Jose, Calif., United States of America) and stained for intracellular cytokine (anti-IFN-γand anti-TNF-α, eBioScience Inc., San Diego, Calif., United States of America). Immunofluoresence was analyzed using the Becton Dickinson FACSCANTO™ I or FACSCANTO™II flow cytometer and analyzed using FlowJo software (Tree Star, Inc., Ashland, Oreg., United States of America).
Background: Flow cytometry measures light scatter and fluorescence of single cells or particles in a stream.

Assay [5] relates to HLA-A2+ cancer cell lines. The experiment in a line: CD107a / IFN-γ flow cytometry after co-culture with human cancer cells. The format is cell-based. The method, then: 14-16 hours post-electroporation, phosphopeptide-specific murine TCR-transfected human CD8 T-cells were co-cultured in AIM-V (Life Technologies Corporation, Gaithersburg, Md., United States of America) supplemented with 5% human AB^+ serum (GEMCELL™; Gemini Bio-Products, West Sacramento, Calif., United States of America) with peptide-pulsed or unpulsed C1R-AAD, C1R-A2, or cancer cells endogenously expressing the pIRS-21097-1105 or the pCDC25b38-46 phosphopeptide. Cell surface expression of mouse TCRβ, human CD3, and human CD8 molecules on human CD8 T-cells were assessed using antibodies from either Becton Dickinson Bioscience (San Jose, Calif., United States of America) or eBioScience Inc. (San Diego, Calif., United States of America). During a 5 hour co-culture of stimulator cells with phosphopeptide-specific murine TCR-transfected human CD8-T cells at 37° C., anti-human CD107a-Alexa 647 antibody (eBioScience Inc., San Diego, Calif., United States of America) was added in the presence of 5 μg/ml Brefeldin A (SIGMA-ALDRICH® Co. LLC, St. Louis, Mo., United States of America), 5 μg/ml Monensin (eBioScience Inc., San Diego, Calif., United States of America) and 300 IU/ml human IL-2 (Chiron Corporation, Emeryville, Calif., United States of America). Cells were then stained for surface molecule expression, fixed and permeabilized using CYTOFIX/CYTOPERM™ (Becton Dickinson Bioscience (San Jose, Calif., United States of America) and stained for intracellular cytokine (anti-IFN-γand anti-TNF-α, eBioScience Inc., San Diego, Calif., United States of America). Immunofluoresence was analyzed using the Becton Dickinson FACSCANTO™ I or FACSCANTO™II flow cytometer and analyzed using FlowJo software (Tree Star, Inc., Ashland, Oreg., United States of America).
Whether these transfected human CD8 T-cells could recognize endogenously processed and presented pIRS-21097-1105 or pCDC25b38-46 phosphopeptide on HLA-A2^+ cancer cell lines was investigated. To correlate pIRS-21097-1105-specific T-cell recognition with phosphopeptide expression, an antibody specific for the Ser^1100-phosphorylated IRS-2 protein (pSer^1100-IRS-2) as well as an antibody that recognizes total IRS-2 protein (Zarling et al., 2006) were employed. […] These two cell lines also expressed high levels of pSer^1100-IRS-2 (FIG. 4). […] There is no specific antibody for Ser^42-phosphorylated CDC25b.

[6] abbreviates: recognized / evaluated cell lines.

Where no end group is shown, it is not given here. [ ]: non-standard residue; d: D form. pS = N[C@@H](COP(=O)(O)O)C(=O)O

As to “RVApSPTSGV (RVA[pS]PTSGV; listed as Homo sapiens) [pIRS-21097-1105]”, in the assay with human CD8 T-cells, the “immunogenicity in vitro for human T-cells” value was “strongly immunogenic”, the “donors with pre-existing memory response” value is reported as 2/4 and the “magnitude of phosphopeptide-specific IFN-γ responses of normal donor T-cells” value was “surprisingly high”. In addition, the “immunogenicity in vivo for HLA-A2 transgenic mice” value in assay [1] is “strongly immunogenic”.

As for “GLLGpSPVRA (GLLG[pS]PVRA; listed as Homo sapiens) [pCDC25b38-46]”, in the assay with human CD8 T-cells, the “immunogenicity in vitro for human T-cells” value is “strongly immunogenic”; the “donors with pre-existing memory response” value was “all four and four”; the “magnitude of phosphopeptide-specific IFN-γ responses of normal donor T-cells” value is recorded as “surprisingly high”. Moreover, the “immunogenicity in vivo for HLA-A2 transgenic mice” value in assay [1] is on record as “strongly immunogenic”.

B1: pIRS2 BK TCR: second murine TCR specific for the IRS-2 phosphopeptide; α chain SEQ ID NO: 8, β chain SEQ ID NO: 10 (protein, listed as Mus musculus)
alpha: MLLALLPVLGIHFVLRDAQAQSVTQPDARVTVSEGASLQLRCKYSYSGTPYLFWYVQYPRQGLQLLLKYYSGDPVVQGVNGFEAEFIKSNSSFHLRKASVHWSDSAVYFCAVSAGSGGKLTLGAGTRLQVNLDIQNPEPAVYQLKDPRSQDSTLCLFTDFDSQVNVPKTMESGTFIADKTVLDMKAMDSKSNGAIAWSNQTSFTCQDIFKETNATYPSSDVPCDATLTEKSFETDMNLNFQNLSVMGLRILLLKVAGFNLLMTLRLWSS
beta: MGSRLFFVVLILLCAKHMEAAVTQSPRSKVAVTGGKVTLSCHQANNHDYMYWYRQDTGHGLRLIHYSYVADSTEKGDIPDGYKASRPSQENFSLILELASLSQTAVYFCASSDRDNYAEQFFGPGTRLTVLEDLRNVTPPKVSLFEPSKAEIANKQKATLVCLARGFFPDHVELSWWVNGKEVRSGVSTDPQAYKESNYSYCLSSRLRVSATFWHNPRNHFRCQVQFHGLSEEDKWPEGSPKPVTQNISAEAWGRADCGITSASYHQGVLSATILYEILLGKATLYAVLVSGLVLMAMVKKKNS
With B1, in assay [2], the “recognition of HLA-A2+ targets and effector function (IFN-γ ELISA)” value was “conferred recognition of HLA-A2+ targets and effector function”.

B2: pCDC25b-specific TCR: murine TCR binding GLLGpSPVRA/HLA-A2; α chain SEQ ID NO: 14, β chain SEQ ID NO: 16; tested expressed in human CD8 T-cells (protein, listed as Mus musculus)
alpha: MKTVTGPLFLCFWLQLNCVSRGEQVEQRPPHLSVREGDSAVIICTYTDPNSYYFFWYKQEPGAGLQLLMKVFSSTEINEGQGFTVLLNKKDQQLSLNLTAAHPGDSAVYFCAVKPGGYKVVFGSGTRLLVSPDIQNPEPAVYQLKDPRSQDSTLCLFTDFDSQINVPKTMESGTFITDKTVLDMKAMDSKSNGAIAWSNQTSFTCQDIFKETNATYPSSDVPCDATLTEKSFETDMNLNFQNLSVMGLRILLLKVAGFNLLMTLRLWSS
beta: MSNTAFPDPAWNTTLLSWVALFLLGTKHMEAAVTQSPRNKVAVTGGKVTLSCNQTNNHNNMYWYRQDTGHGLRLIHYSYGAGSTEKGDIPDGYKASRPSQENFSLILELATPSQTSVYFCASGGDTQYFGPGTRLLVLEDLRNVTPPKVSLFEPSKAEIANKQKATLVCLARGFFPDHVELSWWVNGKEVHSGVSTDPQAYKERNYSYCLSSRLRVSATFWHNPRNHFRCQVQFHGLSEEDKWPEGSPKPVTQNISAEAWGRADCGITSASYHQGVLSATILYEILLGKATLYAVLVSGLVLMAMVKKKNS
Take B2: the tumor-free survival entry in the assay with AAD+ SLM2 melanoma cells (T-cells on days 3 and 7 plus IL-2, versus IL-2 only control, tumor-free = tumor size not >30 mm^2) was “enhanced tumor-free survival”. In addition, in the assay with AAD+ SLM2 melanoma cells (control received IL-2 only), the “tumor outgrowth in comparison to control animals” value is reported as “delayed outgrowth”. Moreover, the “specific killing of peptide-pulsed targets” value in assay [3] is given as “killed pCDC25b38-46-pulsed but not pIRS-21097-1105 or pβ-catenin30-39-pulsed targets”. In addition, in assay [4], the “recognition of phosphopeptide-pulsed targets expressing HLA-A2 compared with AAD” value is “at least as well as those expressing AAD”. In addition, the “response to HLA-A2+ targets pulsed with high levels of the non-phosphorylated peptide” value in assay [4] (IFN-γ / CD107a) is recorded as “Neither cell produced IFN-γ or upregulated CD107a”. The EC50 in assay [4] (human CD8 T-cells electroporated with TCR IVT RNA, phosphopeptide-pulsed AAD+ targets, IFN-γ / CD107a, read-out: peptide dose for half-maximal recognition) was in the range of 0.4 to 0.8 nM. In assay [5], the “recognition (CD107a / IFN-γ) of HLA-A2+ melanoma cell lines MelSwift and 1102Mel” value is “recognized two HLA-A2^+ melanomas”; the “recognition of HLA-A2+ EBV-transformed lymphoblastoid cell line JY” value is given as “did recognize”; the “recognition of HLA-A2neg cancer cells T47D and SK-Mel-28” value is reported as “did not recognize”; the “recognition of HLA-A2neg melanoma SK-Mel-28 or HLA-A2+ antigen-low ovarian carcinoma OV-90” value is given as “failed to recognize”. Besides, the “level of recognition of cancer cells” value in assay [5] (compared with peptide-pulsed targets) is “relatively low”. Also, in assay [5] (setting [6]), the “HLA-A2+ breast carcinomas recognized” value is reported as 3/3, the “HLA-A2+ colorectal carcinomas recognized” value is given as “did not recognize”, the “HLA-A2+ melanomas recognized” value was 3/4 and the “HLA-A2+ ovarian carcinomas recognized” value is “did not recognize”.
